Laboratory results published in the supplement of paper PMC10126150.
± gives the standard deviation of the averaged measurements.

tested on: ATP; assay: switch fluorescence ratio, 500 uM ATP over buffer (Cy3 cluster intensity, sum of 5 cycles each) (fold (ratio)); higher = stronger signal-on switching upon ATP binding; sequences stand for … in TCGTCGGCAGCGTCAGATGTGTATAAGAGACAGTTTTTTTTTTTTTTTTTTTTTTTTT…TC; details: aptamer strand: ATP DNA aptamer (quencher-CACCTGGGGGAGTATTGCGGAGGAAGG + anchor), 100 nM annealed; ATP concentration: 500 uM
Summary of the method: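 Per cluster, summed Cy3 intensity from the target cycles was divided by that from the buffer cycles to give the fluorescence ratio, then averaged per switch-domain sequence. Clusters outside 100-1000 RFU were excluded. The Cy3-labelled switching-strand clusters, on a modified Illumina MiSeq flow-cell, were annealed to 100 nM quencher-labelled ATP aptamer and imaged in selection buffer, then after 15 min with 500 uM ATP at 22 °C, for five cycles with NaOH stripping and re-annealing between them.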
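Note: ATP exposure 15 min at 22 °C before imaging.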

CAGGTTTAAG and CAGTAAAAGT are within error of each other in switch fluorescence ratio: 0.975 ± 0.055 for the first, 0.983 ± 0.031 for the second.

CAGTAAGTCT and CAGTAATGTT are within error of each other in switch fluorescence ratio: 1.05 ± 0.076 for the first, 0.994 ± 0.033 for the second.

First: CAGTAATTGC
Second: CAGTAATTGT
The switch fluorescence ratio of the first is higher: 1.05 ± 0.023 for the first, 0.9856 ± 0.0029 for the second.

Compared with CAGTACCTAA, CAGTACGGTT is lower in switch fluorescence ratio: 1.039 ± 0.0019 for the first, 1 ± 0.037 for the second.

Compared with CAGTACTGGT, CAGTAGAATA is higher in switch fluorescence ratio: 0.99384 ± 0.00024 for the first, 1.02 ± 0.022 for the second.

First: CAGTAGTTAT
Second: CAGTATCCTT
The switch fluorescence ratio of the first is lower: 0.996 ± 0.011 for the first, 1.027 ± 0.003 for the second.

CAGTATCGGA and CAGTATGGTA are within error of each other in switch fluorescence ratio: 0.9814 ± 0.008 for the first, 1 ± 0.012 for the second.

CAGTATGTAG and CAGTATGTCC are within error of each other in switch fluorescence ratio: 0.957 ± 0.02 for the first, 0.966 ± 0.035 for the second.

CAGTATTAGA and CAGTCCATTA are within error of each other in switch fluorescence ratio: 1.003 ± 0.0037 for the first, 1.011 ± 0.0093 for the second.

CAGTCCTGTA and CAGTCGACGG are within error of each other in switch fluorescence ratio: 1 ± 0.042 for the first, 0.993 ± 0.011 for the second.

CAGTCGCGTG and CAGTGAGACT are within error of each other in switch fluorescence ratio: 0.993 ± 0.018 for the first, 1.02 ± 0.037 for the second.

CAGTGCAGCG and CAGTGCGCTT are within error of each other in switch fluorescence ratio: 1.06 ± 0.057 for the first, 1.1 ± 0.085 for the second.

CAGTGGACCG and CAGTGGACGG are within error of each other in switch fluorescence ratio: 1.004 ± 0.0011 for the first, 0.971 ± 0.042 for the second.

CAGTGGATCG and CAGTGGCGTA are the same in switch fluorescence ratio: 1.008 ± 0.0011 for the first, 1.01 ± 0.011 for the second.

CAGTGTCTGA and CAGTGTGTGC are within error of each other in switch fluorescence ratio: 1.05 ± 0.037 for the first, 1.03 ± 0.015 for the second.

CAGTGTTATC and CAGTGTTCCG are within error of each other in switch fluorescence ratio: 1.01 ± 0.013 for the first, 0.977 ± 0.042 for the second.

Compared with CAGTTACGAT, CAGTTAGTAC is higher in switch fluorescence ratio: 1.03 ± 0.032 for the first, 1.1 ± 0.018 for the second.

CAGTTATAAT and CAGTTGGGTT are within error of each other in switch fluorescence ratio: 1.04 ± 0.016 for the first, 1.02 ± 0.041 for the second.

CAGTTGTGGT and CAGTTTAAGG are within error of each other in switch fluorescence ratio: 0.998 ± 0.011 for the first, 1.01 ± 0.024 for the second.

CAGTTTGAGT and CAGTTTTGGC are the same in switch fluorescence ratio: 1.006 ± 0.0014 for the first, 1.01 ± 0.025 for the second.

CATAAAATCG and CATAAAGGAT are within error of each other in switch fluorescence ratio: 0.9666 ± 0.0091 for the first, 0.97 ± 0.011 for the second.

CATAACTAAA and CATAACTATT are within error of each other in switch fluorescence ratio: 1 ± 0.012 for the first, 0.989 ± 0.015 for the second.

CATAAGCCTC and CATAAGGCTC are within error of each other in switch fluorescence ratio: 1.03 ± 0.056 for the first, 1 ± 0.02 for the second.

Compared with CATAATATTA, CATAATCGCA is higher in switch fluorescence ratio: 0.9698 ± 0.0032 for the first, 1.04 ± 0.021 for the second.

First: CATACACCTT
Second: CATACCGGGG
The switch fluorescence ratio of the first is higher: 1.21 ± 0.032 for the first, 1.025 ± 0.0049 for the second.

Going from CATACTTCAT to CATAGAAAAT, the switch fluorescence ratio falls from 1.049 ± 0.0063 to 0.965 ± 0.0069.

CATAGAAGCT and CATAGAATTT are within error of each other in switch fluorescence ratio: 0.976 ± 0.048 for the first, 0.978 ± 0.084 for the second.

CATAGATCTG and CATAGATGTC are within error of each other in switch fluorescence ratio: 1.01 ± 0.028 for the first, 0.989 ± 0.063 for the second.

CATAGCCTAA and CATAGGAGGG are within error of each other in switch fluorescence ratio: 1.008 ± 0.0031 for the first, 0.977 ± 0.056 for the second.

First: CATAGGATTG
Second: CATAGGGTTC
The switch fluorescence ratio of the first is higher: 1.0163 ± 0.00094 for the first, 0.9954 ± 0.0089 for the second.

Going from CATAGTTCTG to CATATCCAGG, the switch fluorescence ratio rises from 0.981 ± 0.028 to 1.34 ± 0.017.

CATATCCCCT and CATATCGCCC are within error of each other in switch fluorescence ratio: 1.03 ± 0.045 for the first, 1.06 ± 0.039 for the second.

First: CATATGGGGC
Second: CATATGTTGA
The switch fluorescence ratio of the first is higher: 1.048 ± 0.00092 for the first, 0.975 ± 0.026 for the second.

CATATTATGG and CATATTTTAG are within error of each other in switch fluorescence ratio: 0.981 ± 0.036 for the first, 0.989 ± 0.032 for the second.

Going from CATCAATAAT to CATCGACTGG, the switch fluorescence ratio falls from 1.045 ± 0.0083 to 0.965 ± 0.017.

CATCGAGAGG and CATCGAGTGT are within error of each other in switch fluorescence ratio: 1.01 ± 0.019 for the first, 1.05 ± 0.029 for the second.

First: CATCGCAAAG
Second: CATCGCTATG
The switch fluorescence ratio of the first is higher: 4.33 ± 0.46 for the first, 1.096 ± 0.0097 for the second.

CATCGGATTT and CATCGGGTGG are within error of each other in switch fluorescence ratio: 0.972 ± 0.01 for the first, 1.03 ± 0.09 for the second.

CATCGGTGCG and CATCGGTGGG are within error of each other in switch fluorescence ratio: 1.08 ± 0.19 for the first, 0.97 ± 0.016 for the second.

First: CATCGGTGTG
Second: CATCGTCACG
The switch fluorescence ratio of the first is lower: 0.958 ± 0.047 for the first, 1.007 ± 0.0025 for the second.

CATCGTGGTT and CATCTCTAGC are within error of each other in switch fluorescence ratio: 0.9778 ± 0.0043 for the first, 0.993 ± 0.012 for the second.

CATCTCTGGA and CATCTGCGGG are within error of each other in switch fluorescence ratio: 0.9986 ± 0.0016 for the first, 1.16 ± 0.17 for the second.

CATCTTAGTG and CATCTTGGAA are within error of each other in switch fluorescence ratio: 1.02 ± 0.057 for the first, 1.01 ± 0.015 for the second.

CATGAAAAGT and CATGAAGCTG are within error of each other in switch fluorescence ratio: 0.978 ± 0.047 for the first, 1.02 ± 0.018 for the second.

Going from CATGACCGAA to CATGATAGCG, the switch fluorescence ratio falls from 1.014 ± 0.0039 to 0.9981 ± 0.0019.

CATGATATGG and CATGCATATT are within error of each other in switch fluorescence ratio: 0.969 ± 0.02 for the first, 1.01 ± 0.044 for the second.

CATGCGAGGG and CATGGAATCG are within error of each other in switch fluorescence ratio: 1 ± 0.035 for the first, 1.02 ± 0.035 for the second.

Compared with CATGGAATTG, CATGGAGCGA is higher in switch fluorescence ratio: 0.989 ± 0.032 for the first, 1.24 ± 0.064 for the second.

CATGGAGTAC and CATGGCACGT are the same in switch fluorescence ratio: 1.02 ± 0.032 for the first, 1.02 ± 0.011 for the second.

CATGGCCTCT and CATGGCCTGA are within error of each other in switch fluorescence ratio: 0.987 ± 0.034 for the first, 0.977 ± 0.018 for the second.
